{
  "source": "paper PMC8683598",
  "key": {"[1]": {"molecular_target": "FLAG-T. castaneum methoprene-tolerant (T. castaneum)", "experiment": "native MS; purified methoprene-bound complex exchanged into 200 mM ammonium acetate pH 7.4, nano-ESI, Synapt G2Si"}, "[2]": {"molecular_target": "FLAG-T. castaneum methoprene-tolerant (T. castaneum)", "experiment": "SEC-MALS; purified complex loaded at ~5 mg/ml, Superdex 200 10/300, 50 mM Tris, 350 mM NaCl, 10 uM methoprene, 2 mM MgCl2, 100 uM TCEP, pH 8.0; peak fractions checked by SDS-PAGE"}},
  "data": [
    {"substance": "His6-Tribolium castaneum taiman (TcTAI) (domain or fragment)", "values": [
      {"measurement": "stoichiometry N", "setting": "[1]", "result": 1},
      {"measurement": "stoichiometry N", "setting": "[2]", "result": 1}
    ]}
  ]
}
